According to PMC12564524, “AlphaFold-Guided Semi-Rational Engineering of an (R)-Amine Transaminase for Green Synthesis of Chiral Amines” (Biomolecules, 2025):

B1: MwoAT (Mycolicibacterium wolinskyi) (protein)
chain: MQYSDYELDTTSPFAGGVAWIEGEYLPASEAKISIFDTGFGHSDLTYTVAHVWHGNIFRLGDHLDRLLDGARKLRLDPGMSKDELAEITKKCVSLSQLRESFVNLTVTRGYGKRKGEKDLSKLTHQVYIYAIPYLWAFPPSEQIFGTTAIVPRHVRRAGRNTVDPTIKNYQWGDLTAASFEAKDRGARTAILMDADNCVAEGPGFNVVIVKDGKLASPSRNALPGITRKTVFEIADAMGIEAELRDVTSHELYDADELMAVTTAGGVTPINSLDGEPIGDGAPGPLTVAIRDRFWALMDEPSALIEAIQY
notes: N-terminal 6xHis tag, pET-15b, codon-optimised synthetic gene, E. coli BL21(DE3), Ni-NTA purified; about 48 kDa; PLP-dependent fold type IV

Key:
[1] = system: T1, CC(=O)CCc1ccccc1; experiment: HPLC quantification of (R)-1-methyl-3-phenylpropylamine, Michaelis-Menten fit; assay type: biochemical, Mycolicibacterium wolinskyi; conditions: pH 7.0, 40 °C, 30 min, 10 μg/mL enzyme, ketone 0-200 mM, standard assay has 20 mM (R)-2-aminoheptane, 2 mM PLP, 100 mM triethanolamine
T1 construct: N-terminal 6xHis tag, pET-15b, codon-optimised synthetic gene, E. coli BL21(DE3), Ni-NTA purified; about 48 kDa; PLP-dependent fold type IV
Description: (§1) HPLC quantification of (R)-1-methyl-3-phenylpropylamine, Michaelis-Menten fit on MwoAT

[2] = substrate: CC(=O)CCc1ccccc1; experiment: as above; assay type: biochemical, Mycolicibacterium wolinskyi; conditions: pH 7.0, 40 °C, 30 min, 10 μg/mL enzyme, ketone 0-200 mM, standard assay has 20 mM (R)-2-aminoheptane, 2 mM PLP, 100 mM triethanolamine
Description: as §1

Row | Molecule | Km [1] [mM] | kcat [1] [s⁻¹] | kcat/Km [1] [M⁻¹ s⁻¹] | Km [2] [mM] | kcat [2] [s⁻¹] | kcat/Km [2] [M⁻¹ s⁻¹]
1 | MwoAT (Mycolicibacterium wolinskyi; L175G) | 42.87 ± 0.43 | 5.32 ± 0.026 | 124 ± 2.5 | – | – | –
2 | MwoAT (Mycolicibacterium wolinskyi; L175A) | 54.25 ± 2.42 | 5.677 ± 0.0542 | 105 ± 5.67 | – | – | –
3 | B1 | – | – | – | 68.03 ± 1.68 | 3.9358 ± 0.0035 | 57.8 ± 1.5
